Results on 7 molecules are retold here after paper PMC6514633, “Structural and functional consequences of age-related isomerization in α-crystallins” (The Journal of Biological Chemistry, 2019).

Residue numbers refer to the chain shown, from its start. In names and notes the source's numbering stands. Where no end group is shown, it is not given here. [ ]: non-standard residue; d: D form.

B1: Core αB (cABC, residues 68–153) (domain or fragment, human, UniProt P02511 68-153, looked up)
chain: MRLEKDRFSVNLDVKHFSPEELKVKVLGDVIEVHGKHEERQDEHGFISREFHRKYRIPADVDPLTITSSLSSDGVLTVNGPRKQVS
notes: αB-crystallin, human, α-crystallin core domain, residues 68-153; also called αB core; core of αB
B2: G-Ct-G peptide GERAIPVSREG with L-Ser (appended-glycine L-isomer) (peptide)
peptide: GERAIPVSREG
B3: Full-length αB-crystallin (WT) (natural protein, human, UniProt P02511 1-175, looked up)
chain: MDIAIHHPWIRRPFFPFHSPSRLFDQFFGEHLLESDLFPTSTSLSPFYLRPPSFLRAPSWFDTGLSEMRLEKDRFSVNLDVKHFSPEELKVKVLGDVIEVHGKHEERQDEHGFISREFHRKYRIPADVDPLTITSSLSSDGVLTVNGPRKQVSGPERTIPITREEKPAVTAAPKK
notes: αB-crystallin, human, full length; Polydisperse oligomers; also called WT αB
B4: Full-length αB-crystallin S59D (phosphomimic) (natural protein, human, UniProt P02511 1-175, looked up)
chain: B3 chain with S59D
notes: αB-crystallin, human, full length, with S59D; also called αBS59D; source: expressed and purified in the same manner as WT
B5: Full-length αB-crystallin D109A (isoAsp-mimic) (natural protein, human, UniProt P02511 1-175, looked up)
chain: B3 chain with D109A
notes: αB-crystallin, human, full length, with D109A; source: expressed and purified in the same manner as WT
B6: Ct peptide ERAIPVSRE with L-Ser (canonical all L-amino acid form) (peptide)
peptide: ERAIPVSRE
B7: C-terminal palindromic peptide of αA-crystallin with D-Ser-162 (D-peptide) (peptide)
chain: ERAIPV[dS]RE

Data set [1] deals with the molecule itself. Description: native MS; core domains analysed alone, 10 μM, 200 mM ammonium acetate pH 6.9, Synapt G1.
Data set [2] deals with B1. Kind of data set: native MS; competition: core domain 10 μM mixed with an L-Ser and a D-Ser peptide (one with added glycines), 40 μM each (4:1 peptide/domain), 200 mM ammonium acetate pH 6.9; monomeric species, 5+, 6+, 7+ charge states quantified. The note with it: both partners purified.
Data set [3] concerns the target core αA (cAAC, residues 59–153) (human, UniProt P02489 59-153, some population of BME-adducted protein). Described as above. The note with it: both partners purified.
Data set [4] deals with the molecule itself. Kind of data set: native MS; full-length αB and mutants, 15 μM by monomer, 200 mM ammonium acetate pH 6.9, QExactive Orbitrap; intact spectra and CID with charge deconvolution (UniDec) to oligomeric distributions.
Data set [5] has as its target core αA (cAAC, residues 59-153) (human, UniProt P02489 59-153, some population of BME-adducted protein). Description: native MS; competition: 10 μM core domain with 40 μM each of L-Ser and D-Ser peptide, 200 mM ammonium acetate pH 6.9; monomeric species, 5+, 6+ and 7+ charge states; approximate dissociation constants calculated from abundance ratios (El-Hawiet et al.). The note with it: both partners purified.

Chain of core αA (cAAC, residues 59–153) (P02489 59-153): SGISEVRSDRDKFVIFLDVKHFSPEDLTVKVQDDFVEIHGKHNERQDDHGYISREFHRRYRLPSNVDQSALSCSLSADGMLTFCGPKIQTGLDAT
Chain of core αA (cAAC, residues 59-153) (P02489 59-153): as above

The stoichiometry N is a count of units in the complex or per binding partner. Take B1: the “stoichiometry N” value in data set [1] was 2. On to B2, for which the binding result in data set [2] and in data set [3] was “binds” each time. For B3, the binding result in data set [4] is listed as “binds”. Regarding B4, in data set [4], the “stoichiometry N” value is roughly 18.

With B5, the binding result in data set [4] is “binds”. The term Kd denotes a measure of binding affinity in units of concentration. On to B6, for which the Kd in data set [2] turned out to be 115 µM; in data set [3] it was 48 µM. In the case of B7, the Kd in data set [5] was 660 µM.
